Measured values from the Human Domainome abundance scans (Beltran et al. 2025).
± gives the uncertainty stated by the source.

B1: POU domain, class 2, transcription factor 3, residues 186 to 260; numbered along this chain, Q9UKI9 (parent)
chain: SDLEELEKFAKTFKQRRIKLGFTQGDVGLAMGKLYGNDFSQTTISRFEALNLSFKNMCKLKPLLEKWLNDAESSP

Variants of: B1
Assay: abundance fitness (aPCA) (normalised: wild type 0, dead -1); higher = more abundant; growth selection in yeast, the domain comes from the species named
Conditions: Homo sapiens

Variant | abundance fitness
SDLEELEKFAKTFKQRRIKLGFTQGDVGLAMGKLYGNDFSQTTISRFEALNLSFKNMCKLKILLEKWLNDAESSP [P62I] | -0.082 ± 0.097
SDLEELEKFAKTFKQRRIKLGFTQGDVGLAMGKLYGNDFSQTTISRFEALNLSFKNMCKLKTLLEKWLNDAESSP [P62T] | -0.163 ± 0.051
SDLEELEKFAKTFKQRRIKLGFTQGDVGLAMGKLYGNDFSQTTISRFEALNLSFKNMCKLKFLLEKWLNDAESSP [P62F] | -0.191 ± 0.1
SDLEELEKFAKTFKQRRIKLGFTQGDVGLAMGKLYGNDFSQTTISRFEALNLSVKNMCKLKPLLEKWLNDAESSP [F54V] | -0.012 ± 0.03
SDLEELEKFAKTFKQRRIKLGFTQGDVGLAMGKLYGNDFSQTTISRFEALNLSNKNMCKLKPLLEKWLNDAESSP [F54N] | -0.037 ± 0.072
SDLEELEKFAKTFKQRRIKLGFTQGDVGLAMGKLYGNDFSQTTISRFEALNLSEKNMCKLKPLLEKWLNDAESSP [F54E] | 0.018 ± 0.038
SDLEELEKFAKTFKQRRIKLGFTQGDVGLAMGKLYGNDFSQTTISRFEALNLSFKNMCKLKPLLEKWLNDAASSP [E72A] | -0.033 ± 0.045
SDLEELEKFAKTFKQRRIKLGFTQGDVGLAMGKLYGNDFSQTTISRFEALNLSFKNMCKLKPLLEKWLNDALSSP [E72L] | -0.173 ± 0.036
SDLEELEKFAKTFKQRRIKLGFTQGDVGLAMGKLYGNDFSQTTISRFEALNLSFKNMCKLKPLLEKWLNDAVSSP [E72V] | -0.043 ± 0.04
SDLEELEKFAKTFKQRRIKLGFTQGDVGLAMGKLYGNDFSQTTISRFEALNLSFKNMCKLKPLLEKDLNDAESSP [W67D] | -0.706 ± 0.16
SDLEELEKFAKTFKARRIKLGFTQGDVGLAMGKLYGNDFSQTTISRFEALNLSFKNMCKLKPLLEKWLNDAESSP [Q15A] | 0.474 ± 0.32
SDLEELEKFAKTFKQRRIKLGFTQGDVGLAMGKLYGNDFSQTTISRFEALNLSFKNMCKLKPLLEKWHNDAESSP [L68H] | -0.358 ± 0.19
SDLEELEKFAKTFKQRRIKLGFTQGDVGLAMGKLYGNDFSQTTISRFEALNLSFKNMCKLKPLLEKWANDAESSP [L68A] | -0.114 ± 0.043
SDLEELEKFAKTFKQRRIKLGFTQGDVGLAMGKLYGNDFSQTTISRFEALNLSFKNMCKLKPLLEKWRNDAESSP [L68R] | -0.626 ± 0.046
SDLEELEKFAKTFKQRRIKLGFTQGDVGLAMGKLYGNDFSQTTISRFEALNLSFKNMCKKKPLLEKWLNDAESSP [L60K] | -0.106 ± 0.058
SDLEELEKFAKTFKQRRIKLGFAQGDVGLAMGKLYGNDFSQTTISRFEALNLSFKNMCKLKPLLEKWLNDAESSP [T23A] | -0.157 ± 0.47
SDLEELEKFAKTFKQRRIKLGFTQGDVGLAMGKLYGNDFSQTTISRFEALNLSFKNMCKLKPLLEKWLNDAEWSP [S73W] | -0.173 ± 0.038
SDLEELEKFAKTFKQRRIKLGFTQGDVGLAMGKLYGNDFSQTTISRFEALNLSFKNMCKLKPLLEKWLNDAESTP [S74T] | -0.034 ± 0.045

Variant | abundance fitness
SDLEELEKFAKTFKQRRIKLGFTQGDVGLAMGKLYGNDFSQTTISRFEALNLSFKNMCKLKPLLEKWLNDAESHP [S74H] | 0.058 ± 0.081
SDLEELEKFAKTFKQRRIKLGFTQGDVGLAMGKLYGNDFSQTTISRFEALNLSFKNMCKLWPLLEKWLNDAESSP [K61W] | -0.181 ± 0.041
SDLEELEKFAKTFKQRRIKLGFTQGDVGLAMGKLYGNDFSQTTISRFEALNLSFKNMCKLTPLLEKWLNDAESSP [K61T] | -0.254 ± 0.05
SDLEELEKFAKTFKQRRIKLGFTQGDVGLAMGKLYGNDFSQTTISRFEALNLSFKNMCKLSPLLEKWLNDAESSP [K61S] | -0.153 ± 0.041
SDLEELEKFAKTFKQRRIKLGFTQGDVGLAMGKLYGNDFSQTTISRFEALNLSFKAMCKLKPLLEKWLNDAESSP [N56A] | 0.018 ± 0.035
SDLEELEKFAKTFKQRRIKLGFTQGDVGLAMGKLYGNDFSQTTISRFEALNLSFKFMCKLKPLLEKWLNDAESSP [N56F] | -0.058 ± 0.065
SDLEELEKFAKTFKQRRIKLGFTQGDVGLAMGKLYGNDFSQTTISRFEALNLSFKYMCKLKPLLEKWLNDAESSP [N56Y] | -0.022 ± 0.052
SDLEELEKFAKTFKQRRIKLGFTQGDVGLAMGKLYGWDFSQTTISRFEALNLSFKNMCKLKPLLEKWLNDAESSP [N37W] | -0.07 ± 0.027
SDLEELEKFAKTFKQRRIKLGFTQGDVGLAMGKLYGNDFSQTTISRFEALTLSFKNMCKLKPLLEKWLNDAESSP [N51T] | 0.007 ± 0.05
SDLEELEKFAKTFKQRRIKLGFTQGDVGLAMGKLYGNDFSQTTISRFEALHLSFKNMCKLKPLLEKWLNDAESSP [N51H] | 0.107 ± 0.098
SDLEELEKFAKTFKQRRIKLGFTQGDVGLAMGKLYGNDFSQTTISRFEALGLSFKNMCKLKPLLEKWLNDAESSP [N51G] | -0.01 ± 0.031
SDLEELEKFAKTFKQRRIKKGFTQGDVGLAMGKLYGNDFSQTTISRFEALNLSFKNMCKLKPLLEKWLNDAESSP [L20K] | -0.591 ± 0.48
SDLEELEKFAKTFKQRRIKLGFTQGDVGSAMGKLYGNDFSQTTISRFEALNLSFKNMCKLKPLLEKWLNDAESSP [L29S] | -0.003 ± 0.025
SDLEELEKFAKTFKQRRIKLGFTQGDVGLAMGKLYGNDFSQTTISRFEALNLLFKNMCKLKPLLEKWLNDAESSP [S53L] | -0.768 ± 0.066
SDLEELEKFAKTFKQRRIKLGFTQGDVGLAMGKLYGNDFSQTTISRFEALNLSFKNMCKLKPSLEKWLNDAESSP [L63S] | -0.055 ± 0.036
SDLEELEKFAKTFKQRRIKLGFTQGDVGLAMGKLYGNDFSQTTISRFEALNLSFKNACKLKPLLEKWLNDAESSP [M57A] | -0.024 ± 0.036
SDLEELEKFAKTFKQRRIKLGFTQGDVGLAMGKLYGNDFSQTTISRFEALNLSFKNGCKLKPLLEKWLNDAESSP [M57G] | -0.172 ± 0.032
SDLEELEKFAKTFKQRRIKLGFTQGDVGLAMGKLYGNDFSQTTISRFEALNLSFKNYCKLKPLLEKWLNDAESSP [M57Y] | -0.496 ± 0.12
